Laboratory results as given in patent US20200087354A1.

Target: Streptococcus pyogenes (Spy) dCas9 (Streptococcus pyogenes) (UniProt Q99ZW2)
Experiment: cell-based or functional assay

| Substance | RFP fluorescence relative to a strain with no guide RNA (dCas9-based repression of a chromosomal RFP reporter in E. coli) [%] |
| --- | --- |
| AcrIIA2 (LMOG_03147) | 25 |
| AcrIIA4 | 85 |
